# Data reported in PMC2949527 (Journal of molecular biology, 2010).
# B1: RFX5(25-90), oligomerization domain of RFX5 (domain or fragment, UniProt P48382 25-90, looked up)
# chain: GEPTTLLQRLRGTISKAVQNKVEGILQDVQKFSDNDKLYLYLQLPSGPTTGDKSSEPSTLSNEEYM
# Molecular target: the molecule itself
# Test: NMR solution structure
protein,measurement,value
B1,stoichiometry N,2
